B1: HESX1 (parent)
chain: HVPNPPSGISFPSVVDHPMPEERA
B2: FBXO33 (parent)
chain: RLRGLLRVLRGRPGAGSRRRGRMA

Variants of: B1
Test: protein stability index of a GFP-peptide fusion (GPS, HEK-293T) (PSI 1-6); higher = more stable
Conditions: c terminus: a fixed tail appended
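Note: lentivirally expressed fusions sorted by FACS into six bins by GFP to DsRed ratio, PSI derived from sequencing read proportions per bin multiplied by bin number.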

Point of comparison: YVPNPPSGISFPSVVDHPMPEERA [H1Y], protein stability index 2.25. Against it:
- HVPNPPSGISFPSVDDHPMPEERA [V15D] — higher, 4.55
- HVPNPPSGISFPSVLDHPMPEERA [V15L] — higher, 3.61
- HVPNPPSGISFPSVHDHPMPEERA [V15H] — higher, 3.23
- HVPNPPSGISFPSVQDHPMPEERA [V15Q] — higher, 3.63
- HVPNPPSGISFPSVRDHPMPEERA [V15R] — higher, 3.11
- HVPNPPSGISFPSVCDHPMPEERA [V15C] — lower, 2.04
- HVPNPPSGISFPSVYDHPMPEERA [V15Y] — higher, 3.03
- HVPNPPSGISFPSVFDHPMPEERA [V15F] — higher, 3.28
- HVPNPPSGISFPSVKDHPMPEERA [V15K] — higher, 3.2
- HVPNPPSGISFPSVMDHPMPEERA [V15M] — higher, 3.49
- HVPNPPSGISFPSVNDHPMPEERA [V15N] — higher, 3.22
- HVPNPPSGISFPSVVDHNMPEERA [P18N] — higher, 2.62
- HVPNPPSGISFPSVVDHRMPEERA [P18R] — higher, 2.79
- HVPNPPSGISFPSVVDHLMPEERA [P18L] — higher, 2.56
- HVPNPPSGISFPSVVDHYMPEERA [P18Y] — higher, 2.48
- HVPNPPSGISFPSVVDHFMPEERA [P18F] — higher, 2.42
- HVPNPPSGISFPSVVDHGMPEERA [P18G] — higher, 2.43
- HVPNPPSGISFPSVVDHEMPEERA [P18E] — higher, 2.85
- HVPNPPSGISFPSVVDHVMPEERA [P18V] — higher, 2.64
- HVPNPPSGISFPSVVDHPMPVERA [E21V] — higher, 2.48
- HVPNPPSGISFPSVVDHPMPNERA [E21N] — higher, 2.37
- HVPNPPSGISFPSVVDHPMPPERA [E21P] — lower, 2.06
- HVPNPPSGISFPSVVDHPMPCERA [E21C] — higher, 2.71
- HVPNPPSGISFPSVVDHPMPYERA [E21Y] — higher, 2.43
- HVPNPPSGISFPSVVDHPMPSERA [E21S] — higher, 2.56
- HVPNPPSGISFPSVVDHPMPTERA [E21T] — higher, 2.52
- HVPNPPSGISFPSVVDHPMGEERA [P20G] — higher, 2.61
- HVPNPPSGISFPSVVDHPMAEERA [P20A] — higher, 2.74
- HVPNPPSGISFPSVVDHPMKEERA [P20K] — higher, 2.54
- HVPNPPSGISFPSVVDHPMTEERA [P20T] — higher, 2.91
- HVPNPPSGISFPSVVDHPMHEERA [P20H] — higher, 2.65
- HVPNPPSGISFPSVVDHPMLEERA [P20L] — higher, 2.48
- HVPNPPSGISFPSVVDHPMEEERA [P20E] — higher, 2.48
- HVPNPPSGISFPSVVDHPMNEERA [P20N] — higher, 3.28
- HVPNPPSGISFPSVVDHPMREERA [P20R] — higher, 2.88
- HVPNPPSGISFPSVVDHPMYEERA [P20Y] — lower, 2.24
- HVPNPPSGISFPSVVDHPMPEERW [A24W] — lower, 1.91
- HVPNPPSGISFPSVVDHPMPEERR [A24R] — higher, 2.87
- HVPNPPSGISFPSVVDHPMPEERH [A24H] — higher, 2.65
- HVPNPPSGISFPSVVDHPMPEERK [A24K] — higher, 2.63
- HVPNPPSGISFPSVVDHPMPEERG [A24G] — higher, 2.33
- HVPNPPSGISFPSVVDHPMPEERC [A24C] — lower, 2.09
- HVPNPPSGISFPSVVDHPMPEERY [A24Y] — lower, 2.13
- HVPNPPSGISFPSVVDHPMPEERL [A24L] — higher, 2.32
- HVPNPPSGISFPSVVDHPMPEERD [A24D] — higher, 2.77
- HVPNPPSGISFPSVVDHPMPEERQ [A24Q] — higher, 2.38
- HVPNPPSGISFPSVVDHPMPEERM [A24M] — higher, 2.77
- HVPNPPSGISFPTVVDHPMPEERA [S13T] — higher, 2.45
- HVPNPPSGISFPRVVDHPMPEERA [S13R] — higher, 2.59
- HVPNPPSGISFPPVVDHPMPEERA [S13P] — higher, 2.73
- HVPNPPSGISFPHVVDHPMPEERA [S13H] — higher, 2.33
- HVPNPPSGISMPSVVDHPMPEERA [F11M] — higher, 4.88
- HVPNPPSGISSPSVVDHPMPEERA [F11S] — higher, 4.86
- HVPNPPSGISDPSVVDHPMPEERA [F11D] — higher, 5.23
- HVPNPPSGISTPSVVDHPMPEERA [F11T] — higher, 4.8
- HVPNPPSGISRPSVVDHPMPEERA [F11R] — higher, 4.37
- HVPNPPSGISFPSVVDHPMPEIRA [E22I] — higher, 2.75
- HVPNPPSGISFPSVVDHPMPEDRA [E22D] — higher, 2.76
- HVPNPPSGISFPSVVDHPMPEQRA [E22Q] — higher, 2.77
- HVPNPPSGISFPSVVDHPMPETRA [E22T] — higher, 2.33
- HVPNPPSGISFASVVDHPMPEERA [P12A] — higher, 3.44
- HVPNPPSGISFHSVVDHPMPEERA [P12H] — higher, 3.38
- HVPNPPSGISFVSVVDHPMPEERA [P12V] — higher, 2.99
- HVPNPPSGISFDSVVDHPMPEERA [P12D] — higher, 4.85
- HVPNPPSGISFMSVVDHPMPEERA [P12M] — higher, 2.72
- HVPNPPSGISFLSVVDHPMPEERA [P12L] — higher, 2.79
- HVPNPPSGISFTSVVDHPMPEERA [P12T] — higher, 3.78
- HVPNPPSGISFQSVVDHPMPEERA [P12Q] — higher, 3.92
- EVPNPPSGISFPSVVDHPMPEERA [H1E] — higher, 5.06
- MVPNPPSGISFPSVVDHPMPEERA [H1M] — higher, 5.08
- TVPNPPSGISFPSVVDHPMPEERA [H1T] — higher, 5.62

Variants of: B2
Test: as above
Conditions: c terminus: a fixed tail appended

Point of comparison: RLRGLLRVLRGRPGAGSRRRGRMR [A24R], protein stability index 2.63. Against it:
- RLRGLLRVLRGRPGAGSRRRGRTA [M23T] — lower, 2.44
- RLRGLLRVLRGRPGAGSRRRGRHA [M23H] — lower, 2.42
- RLRGLLRVLRGRPGAGSRRRGRNA [M23N] — lower, 2.02
- RLRGLLRVLRGRPGAGSRRRGRVA [M23V] — lower, 1.97
- RLRGLLRVLRGRPGAGSRRRGRLA [M23L] — higher, 2.89
- RLRGLLRVLRGRPGAGSRRRGRPA [M23P] — lower, 1.58
- RLRGLLRVLRGRPGAGSRRRGRMW [A24W] — lower, 2.42
- RLRGLLRVLRGRPGAGSRRRGRMQ [A24Q] — higher, 2.74
- RLRGLLRVLRGRPGAGSRRRGRMF [A24F] — higher, 2.73
- RLRGLLRVLRGRPGAGSRRRGRME [A24E] — lower, 2.54
- RLRGLLRVLRGRPGAGSRRRGRMP [A24P] — higher, 3.3
- RLRGLLRVLRGRPGAGSRRRGRML [A24L] — lower, 1.64
- RLRGLLRVLRGRPGAGSRRRGRMD [A24D] — lower, 1.04
- RLRGLLRVLRGRPGAGSRRRGRMI [A24I] — lower, 1.46
- RLRGLLRVLRGRPGAGSRRRGRMY [A24Y] — lower, 2.27
- RLRGLLRVLRGRPGAGSRRRGNMA [R22N] — lower, 1.77
- RLRGLLRVLRGRPGAGSRRRGSMA [R22S] — lower, 1.99
- RLRGLLRVLRGRPGAGSRRRGMMA [R22M] — lower, 2.25
- RLRGLLRVLRGRPGAGSRRRGWMA [R22W] — lower, 1.65
- RLRGLLRVLRGRPGAGSRRRGYMA [R22Y] — lower, 1.7
- RLRGLLRVLRGRPGAGSRRRGKMA [R22K] — lower, 1.76

Reference: the supplement of paper PMC10567573
